Results published in the supplement of paper PMC10065799, “High-throughput profiling of sequence recognition by tyrosine kinases and SH2 domains using bacterial peptide display” (eLife, 2023).

Tests used:
Fes = Fes (UniProt P07332); assay: phosphorylation enrichment, bacterial display (enrichment ratio); higher = better substrate or ligand; peptides without Tyr show the background
EPHB2 = EPHB2 (UniProt P29323); assay: as above
c-Src = assay: as above
Hck = Hck (UniProt P08631); assay: as above
AncSZ = assay: as above
FGFR1 = FGFR1 (UniProt P11362); assay: as above
EPHB1 = EPHB1 (UniProt P54762); assay: as above
MERTK = MERTK (UniProt Q12866); assay: as above
Jak2 = Jak2 (UniProt O60674); assay: as above
FGFR3 = FGFR3 (UniProt P22607); assay: as above
Fyn = Fyn (UniProt P06241); assay: as above
c-Abl (mouse) = assay: as above
Fer (mouse) = assay: as above
c-Src SH2 = assay: SH2 binding enrichment of the phosphorylated peptide, bacterial display (enrichment ratio); higher = better substrate or ligand; peptides without Tyr show the background
Grb2 SH2 = Grb2 SH2 (UniProt P62993); assay: as above
SHP2-C SH2 = assay: as above
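Throughout, for SH2 binding enrichment of the phosphorylated peptide, bacterial display: peptide library displayed on the E. coli surface as eCPX fusions, selected cells deep-sequenced, score is each peptide's frequency after selection divided by its frequency in the input.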
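Throughout, for phosphorylation enrichment, bacterial display: 11-residue human phosphosite peptides and single-mutation variants displayed on the E. coli surface, counted by deep sequencing, each peptide's frequency after selection divided by its frequency in the unselected input library; frequency after pTyr selection over input frequency; kinase dosed for 20-30% of maximal phosphorylation in three min.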

Sequence of FGFR1 (P11362 whole entry, looked up): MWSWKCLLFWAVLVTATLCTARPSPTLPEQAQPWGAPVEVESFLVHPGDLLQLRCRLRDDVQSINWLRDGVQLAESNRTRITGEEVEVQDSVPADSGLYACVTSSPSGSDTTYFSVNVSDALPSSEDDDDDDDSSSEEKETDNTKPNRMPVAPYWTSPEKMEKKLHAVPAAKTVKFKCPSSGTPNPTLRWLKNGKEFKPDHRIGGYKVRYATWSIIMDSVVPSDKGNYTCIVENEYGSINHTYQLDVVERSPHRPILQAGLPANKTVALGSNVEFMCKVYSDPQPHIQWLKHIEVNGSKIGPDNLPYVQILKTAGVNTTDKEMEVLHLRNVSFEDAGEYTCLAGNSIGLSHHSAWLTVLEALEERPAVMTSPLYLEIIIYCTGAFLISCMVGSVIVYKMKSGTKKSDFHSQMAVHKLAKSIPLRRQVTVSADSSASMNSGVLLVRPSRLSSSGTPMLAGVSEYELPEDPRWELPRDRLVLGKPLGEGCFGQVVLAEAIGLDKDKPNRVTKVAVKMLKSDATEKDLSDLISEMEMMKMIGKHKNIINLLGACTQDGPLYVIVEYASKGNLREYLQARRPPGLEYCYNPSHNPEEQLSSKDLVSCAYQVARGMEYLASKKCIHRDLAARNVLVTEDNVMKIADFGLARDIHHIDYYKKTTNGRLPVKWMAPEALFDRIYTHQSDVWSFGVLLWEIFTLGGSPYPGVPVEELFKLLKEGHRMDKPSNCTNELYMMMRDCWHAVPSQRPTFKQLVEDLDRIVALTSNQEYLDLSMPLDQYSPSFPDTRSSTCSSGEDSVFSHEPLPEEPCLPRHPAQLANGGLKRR
Sequence of EPHB1 (P54762 whole entry, looked up): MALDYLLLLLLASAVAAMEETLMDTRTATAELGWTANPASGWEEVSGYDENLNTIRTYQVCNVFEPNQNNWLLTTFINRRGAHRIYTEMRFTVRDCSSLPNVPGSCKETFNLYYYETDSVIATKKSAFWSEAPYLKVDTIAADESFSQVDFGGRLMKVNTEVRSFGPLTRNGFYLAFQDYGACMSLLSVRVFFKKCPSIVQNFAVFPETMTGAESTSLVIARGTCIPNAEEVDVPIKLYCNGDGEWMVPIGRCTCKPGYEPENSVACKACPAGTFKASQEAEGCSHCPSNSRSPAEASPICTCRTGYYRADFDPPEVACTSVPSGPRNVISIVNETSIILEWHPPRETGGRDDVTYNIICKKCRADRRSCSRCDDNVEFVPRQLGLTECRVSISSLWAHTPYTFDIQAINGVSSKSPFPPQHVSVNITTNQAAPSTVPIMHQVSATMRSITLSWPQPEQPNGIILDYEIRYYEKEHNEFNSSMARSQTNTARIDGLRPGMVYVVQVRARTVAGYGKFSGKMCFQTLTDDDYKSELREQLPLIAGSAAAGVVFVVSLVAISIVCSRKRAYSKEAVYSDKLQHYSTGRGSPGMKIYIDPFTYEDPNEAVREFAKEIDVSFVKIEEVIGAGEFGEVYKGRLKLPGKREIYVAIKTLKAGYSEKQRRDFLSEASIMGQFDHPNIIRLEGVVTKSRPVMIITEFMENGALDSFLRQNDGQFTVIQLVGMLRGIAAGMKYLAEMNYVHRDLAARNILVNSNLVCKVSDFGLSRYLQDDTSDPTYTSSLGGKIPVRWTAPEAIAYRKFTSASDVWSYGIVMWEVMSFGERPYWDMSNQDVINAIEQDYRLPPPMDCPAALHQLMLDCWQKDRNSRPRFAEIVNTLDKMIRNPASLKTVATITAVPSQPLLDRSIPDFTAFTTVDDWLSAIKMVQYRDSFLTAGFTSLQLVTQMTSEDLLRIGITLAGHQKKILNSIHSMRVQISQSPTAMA
Sequence of Fyn (P06241 whole entry, looked up): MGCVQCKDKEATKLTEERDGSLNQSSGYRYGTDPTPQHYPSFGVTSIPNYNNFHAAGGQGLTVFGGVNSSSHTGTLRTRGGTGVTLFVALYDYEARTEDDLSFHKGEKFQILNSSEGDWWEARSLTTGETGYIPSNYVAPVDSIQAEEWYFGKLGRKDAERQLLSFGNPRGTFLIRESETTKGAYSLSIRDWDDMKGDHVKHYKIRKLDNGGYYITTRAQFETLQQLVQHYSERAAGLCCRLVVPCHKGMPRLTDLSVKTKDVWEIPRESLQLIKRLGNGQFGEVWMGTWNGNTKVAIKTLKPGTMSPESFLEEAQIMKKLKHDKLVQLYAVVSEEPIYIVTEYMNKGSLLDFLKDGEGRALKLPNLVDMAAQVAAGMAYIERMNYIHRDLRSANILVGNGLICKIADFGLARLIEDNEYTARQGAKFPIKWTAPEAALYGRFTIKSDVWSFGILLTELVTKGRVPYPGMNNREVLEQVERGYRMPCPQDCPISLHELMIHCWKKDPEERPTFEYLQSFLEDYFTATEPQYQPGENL
Sequence of FGFR3 (P22607 whole entry, looked up): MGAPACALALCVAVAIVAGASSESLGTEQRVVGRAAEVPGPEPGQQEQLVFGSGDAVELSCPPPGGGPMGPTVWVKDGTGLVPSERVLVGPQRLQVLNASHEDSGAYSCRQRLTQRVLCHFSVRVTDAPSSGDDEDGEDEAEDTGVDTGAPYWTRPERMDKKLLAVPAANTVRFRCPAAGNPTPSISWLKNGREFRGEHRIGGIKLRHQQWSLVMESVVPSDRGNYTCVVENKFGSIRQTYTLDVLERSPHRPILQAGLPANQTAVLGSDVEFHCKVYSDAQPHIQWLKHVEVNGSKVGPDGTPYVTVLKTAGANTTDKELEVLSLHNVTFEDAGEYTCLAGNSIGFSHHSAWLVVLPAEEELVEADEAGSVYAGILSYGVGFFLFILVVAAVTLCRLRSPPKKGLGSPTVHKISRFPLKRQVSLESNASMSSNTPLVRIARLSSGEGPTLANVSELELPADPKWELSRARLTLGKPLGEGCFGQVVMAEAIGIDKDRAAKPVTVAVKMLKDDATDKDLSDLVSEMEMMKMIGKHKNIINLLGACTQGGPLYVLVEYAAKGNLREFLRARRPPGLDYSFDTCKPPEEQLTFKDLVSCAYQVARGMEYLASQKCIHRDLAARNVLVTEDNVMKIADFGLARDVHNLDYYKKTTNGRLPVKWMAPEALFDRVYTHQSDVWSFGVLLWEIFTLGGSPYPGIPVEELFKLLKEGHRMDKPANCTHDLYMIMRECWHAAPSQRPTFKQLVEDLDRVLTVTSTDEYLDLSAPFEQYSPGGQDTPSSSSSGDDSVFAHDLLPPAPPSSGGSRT
Sequence of EPHB2 (P29323 whole entry, looked up): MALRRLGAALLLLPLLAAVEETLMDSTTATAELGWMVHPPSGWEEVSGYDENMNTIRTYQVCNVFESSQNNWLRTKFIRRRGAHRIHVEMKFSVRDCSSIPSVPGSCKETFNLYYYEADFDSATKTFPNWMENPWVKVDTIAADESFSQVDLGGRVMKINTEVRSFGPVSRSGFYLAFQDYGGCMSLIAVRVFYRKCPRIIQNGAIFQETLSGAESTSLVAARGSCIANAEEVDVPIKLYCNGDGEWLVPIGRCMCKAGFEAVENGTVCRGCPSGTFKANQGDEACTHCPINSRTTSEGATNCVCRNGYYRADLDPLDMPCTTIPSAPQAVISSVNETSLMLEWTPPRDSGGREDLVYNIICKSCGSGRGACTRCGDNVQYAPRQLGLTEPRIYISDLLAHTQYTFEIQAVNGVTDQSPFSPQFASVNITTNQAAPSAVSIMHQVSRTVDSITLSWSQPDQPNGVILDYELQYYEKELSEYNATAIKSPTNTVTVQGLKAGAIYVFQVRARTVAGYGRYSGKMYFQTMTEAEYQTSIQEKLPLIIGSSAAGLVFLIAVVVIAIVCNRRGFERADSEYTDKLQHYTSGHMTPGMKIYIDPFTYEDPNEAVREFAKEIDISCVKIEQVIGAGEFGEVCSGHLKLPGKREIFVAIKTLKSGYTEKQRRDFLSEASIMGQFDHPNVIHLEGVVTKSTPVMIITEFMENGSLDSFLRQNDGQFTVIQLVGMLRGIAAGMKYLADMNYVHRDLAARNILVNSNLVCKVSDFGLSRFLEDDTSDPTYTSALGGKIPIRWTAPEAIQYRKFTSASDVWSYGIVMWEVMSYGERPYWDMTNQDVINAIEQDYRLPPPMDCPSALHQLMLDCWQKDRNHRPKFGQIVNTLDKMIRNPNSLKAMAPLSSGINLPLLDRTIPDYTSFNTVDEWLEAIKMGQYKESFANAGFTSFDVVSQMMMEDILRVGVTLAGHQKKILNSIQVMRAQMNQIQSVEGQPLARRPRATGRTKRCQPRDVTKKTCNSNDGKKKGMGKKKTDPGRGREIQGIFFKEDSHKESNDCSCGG
Sequence of Fes (P07332 whole entry, looked up): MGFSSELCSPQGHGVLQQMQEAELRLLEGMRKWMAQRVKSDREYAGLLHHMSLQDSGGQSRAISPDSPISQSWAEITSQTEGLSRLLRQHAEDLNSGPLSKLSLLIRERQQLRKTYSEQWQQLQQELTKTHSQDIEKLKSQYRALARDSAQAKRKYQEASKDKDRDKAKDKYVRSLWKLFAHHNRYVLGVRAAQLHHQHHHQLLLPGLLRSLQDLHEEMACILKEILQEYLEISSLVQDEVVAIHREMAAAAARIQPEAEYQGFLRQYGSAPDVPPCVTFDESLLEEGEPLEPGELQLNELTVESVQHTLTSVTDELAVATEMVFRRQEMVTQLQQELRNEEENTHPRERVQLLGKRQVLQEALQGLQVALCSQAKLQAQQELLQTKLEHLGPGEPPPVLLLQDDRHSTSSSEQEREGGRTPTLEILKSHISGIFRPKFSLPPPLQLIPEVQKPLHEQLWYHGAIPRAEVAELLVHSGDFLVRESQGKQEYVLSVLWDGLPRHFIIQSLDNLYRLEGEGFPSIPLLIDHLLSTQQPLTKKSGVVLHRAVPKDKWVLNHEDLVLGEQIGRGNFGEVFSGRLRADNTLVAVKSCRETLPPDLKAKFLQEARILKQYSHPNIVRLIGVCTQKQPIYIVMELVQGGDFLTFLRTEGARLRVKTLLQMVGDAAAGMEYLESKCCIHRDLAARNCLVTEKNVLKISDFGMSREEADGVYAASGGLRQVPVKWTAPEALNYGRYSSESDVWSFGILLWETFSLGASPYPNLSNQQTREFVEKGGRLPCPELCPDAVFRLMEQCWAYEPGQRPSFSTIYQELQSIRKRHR

| Sequence | phosphorylation enrichment (Fes) | phosphorylation enrichment (EPHB2) | phosphorylation enrichment (c-Src) | phosphorylation enrichment (Hck) | phosphorylation enrichment (AncSZ) | phosphorylation enrichment (FGFR1) | phosphorylation enrichment (EPHB1) | phosphorylation enrichment (MERTK) | phosphorylation enrichment (Jak2) | phosphorylation enrichment (FGFR3) | phosphorylation enrichment (Fyn) | phosphorylation enrichment (c-Abl (mouse)) | phosphorylation enrichment (Fer (mouse)) | SH2 binding enrichment (c-Src SH2) | SH2 binding enrichment (Grb2 SH2) | SH2 binding enrichment (SHP2-C SH2) |
| --- | --- | --- | --- | --- | --- | --- | --- | --- | --- | --- | --- | --- | --- | --- | --- | --- |
| MFFSTYDRDND [FGB_Y408] | 1.05 | 0.578 | 0.589 | 0.511 | 0.849 | 0.673 | 0.541 | 0.408 | 1.03 | 0.601 | 0.426 | 0.84 | 0.501 | 0.778 | 0.845 | 1.03 |
| TMKSRYMELFD [BBS2_Y644_YF] | 0.914 | 0.437 | 0.418 | 0.48 | 0.765 | 0.482 | 0.523 | 0.42 | 0.71 | 0.667 | 0.447 | 0.613 | 0.382 | 4.89 | 0.945 | 0.634 |
| MFRVQYNSSVD [LRFN1_Y458_Q455R_YF] | 0.931 | 0.477 | 0.386 | 0.406 | 0.769 | 0.439 | 0.49 | 0.349 | 0.908 | 0.597 | 0.424 | 0.552 | 0.415 | 0.572 | 0.89 | 0.868 |
| LNERHYGGLTG [PGAM2_Y92] | 0.856 | 0.432 | 0.47 | 0.454 | 0.679 | 0.607 | 0.417 | 0.527 | 4.09 | 0.552 | 0.53 | 0.789 | 0.394 | 0.415 | 0.761 | 0.53 |
| EFLQKYKGFKI [SYNE1_Y6953_YF] | 0.752 | 0.477 | 0.397 | 0.411 | 0.773 | 0.393 | 0.372 | 0.395 | 0.775 | 0.491 | 0.376 | 0.549 | 0.433 | 0.346 | 0.95 | 0.732 |
| DGQVNYEGFVQ [CALM1_Y139_E141G] | 1.07 | 1.01 | 0.603 | 0.553 | 0.996 | 0.496 | 1.31 | 0.453 | 1.04 | 0.724 | 0.512 | 1.19 | 0.793 | 0.586 | 0.659 | 0.467 |
| ISRVLYPNDNF [PYGM_Y281] | 0.748 | 0.524 | 0.477 | 0.395 | 0.649 | 0.448 | 0.438 | 0.37 | 0.675 | 0.472 | 0.759 | 0.602 | 0.422 | 0.446 | 0.743 | 0.626 |
| FQNSLYAPDYS [FAM92A_Y226_R222Q] | 1.07 | 2.45 | 1.42 | 1.46 | 1.1 | 0.781 | 2.48 | 5.57 | 0.945 | 0.926 | 1.07 | 0.618 | 1.6 | 0.628 | 1.2 | 1.17 |
| ENPLDYGSAWA [AR_Y395] | 1.08 | 0.565 | 0.476 | 0.559 | 0.992 | 0.491 | 0.46 | 0.395 | 0.991 | 0.744 | 0.527 | 0.709 | 0.524 | 0.454 | 0.716 | 0.806 |
| PKGTGYIKTEL [STAT1_Y701] | 0.835 | 0.557 | 0.635 | 0.748 | 0.973 | 0.792 | 0.411 | 0.694 | 0.986 | 1.01 | 0.512 | 0.559 | 0.801 | 0.446 | 0.93 | 0.893 |
| LSPNMYNSKFW [TARSL2_Y457_L461F] | 1.6 | 1.1 | 1.35 | 1.25 | 1.24 | 1.24 | 1.41 | 1.11 | 1.58 | 0.924 | 0.911 | 1.1 | 0.808 | 0.506 | 0.909 | 0.486 |
| GHLFAYDWISI [BEST1_Y227_YF] | 1.48 | 0.823 | 0.915 | 1.4 | 1.25 | 2.76 | 0.938 | 6.92 | 0.707 | 1.74 | 0.894 | 0.526 | 15.1 | 1.09 | 1.36 | 1.16 |
| FSPCDYQPCLA [TNS1_Y798_Y796C_YF] | 1.11 | 6.05 | 1.42 | 0.659 | 1.84 | 2.38 | 11.6 | 0.49 | 1.05 | 1.58 | 0.581 | 0.996 | 0.539 | 0.837 | 0.883 | 0.843 |
| RWGQKHMTAVV [CYBA_Y72_Y72H] | 1.39 | 0.559 | 0.496 | 0.5 | 1.13 | 0.483 | 0.516 | 0.587 | 2.7 | 0.74 | 0.699 | 0.81 | 0.692 | 1.6 | 1.68 | 1.66 |
| VSFGEYRFRSV [CFTR_Y515_D513G_YF] | 0.801 | 0.443 | 0.489 | 0.469 | 0.668 | 0.523 | 0.431 | 0.395 | 0.574 | 0.513 | 0.356 | 0.672 | 0.402 | 0.528 | 0.792 | 0.9 |
| CGTPTCLAPEV [CHEK2_Y390_Y390C] | 1.1 | 0.695 | 0.454 | 0.436 | 1.18 | 0.566 | 0.545 | 0.491 | 0.816 | 0.627 | 0.504 | 0.759 | 0.54 | 0.608 | 0.904 | 0.932 |
| GAAMLYFPSVS [GPR143_Y177_YF] | 0.764 | 0.423 | 0.56 | 0.512 | 0.613 | 0.66 | 0.465 | 0.732 | 1.36 | 0.736 | 0.445 | 0.535 | 0.437 | 0.503 | 0.871 | 0.895 |

| Sequence | phosphorylation enrichment (Fes) | phosphorylation enrichment (EPHB2) | phosphorylation enrichment (c-Src) | phosphorylation enrichment (Hck) | phosphorylation enrichment (AncSZ) | phosphorylation enrichment (FGFR1) | phosphorylation enrichment (EPHB1) | phosphorylation enrichment (MERTK) | phosphorylation enrichment (Jak2) | phosphorylation enrichment (FGFR3) | phosphorylation enrichment (Fyn) | phosphorylation enrichment (c-Abl (mouse)) | phosphorylation enrichment (Fer (mouse)) | SH2 binding enrichment (c-Src SH2) | SH2 binding enrichment (Grb2 SH2) | SH2 binding enrichment (SHP2-C SH2) |
| --- | --- | --- | --- | --- | --- | --- | --- | --- | --- | --- | --- | --- | --- | --- | --- | --- |
| HTVVSYAEVRA [CLOCK_Y378] | 1.23 | 0.809 | 0.742 | 0.899 | 1.12 | 0.62 | 0.627 | 0.509 | 0.779 | 0.599 | 0.897 | 0.781 | 0.52 | 3.25 | 0.721 | 27.9 |
| GGQSVYHVHLH [HINT1_Y109] | 0.77 | 0.487 | 1.01 | 0.686 | 0.619 | 0.495 | 0.476 | 0.434 | 0.629 | 0.532 | 0.865 | 0.581 | 0.455 | 0.897 | 1.19 | 0.904 |
| HAVYIYDICHV [TWNK_Y508_V507I] | 1.77 | 8.7 | 5.31 | 5.31 | 2.46 | 1.57 | 8.01 | 6.7 | 0.989 | 1.65 | 7.62 | 4.12 | 9.37 | 0.707 | 0.801 | 0.979 |
| PFWKLYESVKK [MKI67_Y241] | 1.39 | 2.31 | 1.58 | 4.34 | 1 | 0.52 | 6.75 | 0.966 | 1.58 | 0.703 | 1.03 | 1.07 | 1.8 | 0.766 | 1.16 | 0.625 |
| KAVLHYKHQNQ [MTOR_Y1804_E1799K] | 0.863 | 0.328 | 0.366 | 0.449 | 0.6 | 0.427 | 0.423 | 0.366 | 0.622 | 0.629 | 0.36 | 0.891 | 0.469 | 0.861 | 1.12 | 0.734 |
| LARDMYDKEYY [MET_Y1230] | 1.43 | 0.627 | 0.673 | 0.765 | 1.83 | 0.921 | 0.815 | 0.449 | 1.41 | 0.973 | 0.624 | 0.652 | 0.71 | 1.37 | 0.881 | 0.614 |
| IWDLKYTIENP [SND1_Y178_R174W] | 1.16 | 0.498 | 0.688 | 0.433 | 1.01 | 0.497 | 0.593 | 0.426 | 1.02 | 0.82 | 0.353 | 1.07 | 0.496 | 0.467 | 1.06 | 0.755 |
| RQSTLYSFFPT [MSH6_Y8_K13T] | 1.26 | 21.2 | 7.3 | 9.63 | 1.35 | 9.72 | 16.1 | 16.8 | 0.824 | 7.04 | 7.89 | 3.62 | 14.2 | 0.752 | 1 | 1.4 |
| VYSIDYYRVGG [NTRK2_Y706_T704I] | 0.836 | 3.13 | 5.1 | 3.95 | 2.29 | 10.9 | 4.12 | 9.3 | 7.33 | 9.09 | 6.29 | 0.788 | 3.79 | 2 | 0.884 | 1.61 |
| RPFSPYIIRGM [LRP5_Y1531_R1529S_YF] | 0.991 | 0.535 | 0.886 | 0.719 | 1.29 | 0.785 | 0.752 | 0.494 | 0.92 | 0.71 | 0.98 | 0.595 | 0.494 | 0.479 | 0.834 | 0.81 |
| CTTLHYNFMCN [TP53_Y234_I232L_YF] | 0.78 | 0.406 | 0.538 | 0.395 | 0.718 | 0.567 | 0.361 | 0.424 | 0.758 | 0.534 | 0.391 | 0.545 | 0.708 | 2.26 | 1.53 | 1.64 |
| QCTSAHPLQPE [NANS_Y188_Y188H] | 1.73 | 0.923 | 0.461 | 0.771 | 1.25 | 0.966 | 1.07 | 0.449 | 1.28 | 0.961 | 0.601 | 1.09 | 0.726 | 0.594 | 0.672 | 0.465 |
| RLEGVYGNNID [PTEN_Y46_R47G] | 0.603 | 0.311 | 1.26 | 0.94 | 0.404 | 0.485 | 0.452 | 0.657 | 0.557 | 0.381 | 1.57 | 0.384 | 0.621 | 0.408 | 0.713 | 0.444 |
| SSNLFYRWLTA [CNGA3_Y169_YF] | 0.982 | 0.526 | 0.398 | 0.557 | 1.09 | 0.621 | 0.594 | 0.532 | 0.846 | 0.744 | 0.473 | 0.665 | 0.493 | 0.466 | 0.692 | 0.591 |
| SRPHLYGTPSR [ADGRE2_Y670] | 0.587 | 0.617 | 0.441 | 0.565 | 0.609 | 0.426 | 0.493 | 0.58 | 0.588 | 0.619 | 0.615 | 0.538 | 0.402 | 1.09 | 1.54 | 0.825 |
| QCQLKYSETPF [SIX6OS1_Y129_Y125C] | 1.32 | 0.722 | 0.717 | 0.749 | 1.24 | 0.68 | 0.634 | 0.82 | 1.01 | 0.842 | 0.558 | 0.933 | 0.798 | 0.644 | 0.876 | 0.61 |
